Results reported in patent publication US5591613A, “Method for the preparation of D-arginine and L-ornithine” (Degussa Aktiengesellschaft, priority 1990, dated 1997).

Substrate: N=C(N)NCCC[C@H](N)C(=O)O
Assay: Arginase-catalysed hydrolysis of L-Arg to L-Orn, initial rates in batch, with and without inhibitors
Format: biochemical, calf
Conditions: other: nonlinear regression of initial rate data with L-Arg; 25.0 °C
Method: In further experiments, the materials used were: Calf liver arginase (activity 110 U/mg) which was obtained from Boehringer Mannheim (Mannheim, F.R.G.). Amino acids were from Rexim (Ham, France). MnSO4, MnO2, and ascorbic acid were from E. Merck (Darmstadt, F.R.G.).
Batch conditions used were: Starting pH value, except for the activity-pH curve, was either 11.5, the natural value for L-Arg in water, or 9.5, adjusted from pH 11.5 with conc. HCl. The temperature was 25° C. unless otherwise noted. Typical concentrations of L-Arg were 0.75M. Unless otherwise mentioned, [Mn2^+ ]=5-10^-4 M. Reaction progress was followed by HPLC (amino column, mobile phase: phosphate buffer (pH 6.4)/acetonitrile).
Kinetic data was obtained as follows: Initial rate data were analyzed by a non-linear regression method (Marquardt routine) with the program OPTI (U. Giesecke, KFA J ulich).
A linear slope of 1/[S] vs. [I] plot distinguishes a purely competitive inhibition mechanism from a partially competitive one. Simultaneously, the apparent and the intrinsic KM -value are proportional to [I] according to equation (5) from which the inhibition constant KI can be calculated
Since the runs have been conducted at [LArg]=50 mM=2·Km,intr,Vo =Vmax ·2·KM,intr /(KM,intr (3+[I]/KI))=Vmax ·2/(3+[I]/KI). At [I]=KI, Vo =Vmax 2/(3+1)=Vmax /2. So, KI can be calcuated with sufficient accuracy from a Vo vs. [I] plot such as FIG. 4.

B1: Calf liver arginase (Bos taurus) (protein)
chain: MSSKPQSIGVIGAPFSKGQPRGGVEEGPTVLRKAGLLEKLKELECDVKDYGDLSFADNLDDSPFQIVKNPRCVGKASEKLADVVAEVKKTGRISLVLGGDHSLAIGSISGHARVHPDLCVIWVDAHTDINTPLTTKTGNLHGQPVSFLLKELKEKMPEVPGFYWVAPCISAKDIVYIGLRDVDPGEHYILKTLGIKYFSMTEVDKLGIGKVMEETFSYLLGRKKRPIHLSFDVDGLDPSFTPATGTPVQGGLTYREGLYITEEIYKTGLLSGLDIMEVNPSLGKTPEEVTRTVNTTVAITMACFGVAREGNHKPIDYLSPPK
notes: purchased Boehringer Mannheim (Mannheim, F.R.G.)
  Km: 25.5 mM
  kcat: 1200 s⁻¹
